Data taken from publication PMC3240820.

Molecular target: C-terminal His-tagged Caskin1 SAM mutant G520E (human) (UniProt Q8WXD9)
Assay: SPR

Sequence of C-terminal His-tagged Caskin1 SAM mutant G520E (human) (Q8WXD9 470-605 G520E): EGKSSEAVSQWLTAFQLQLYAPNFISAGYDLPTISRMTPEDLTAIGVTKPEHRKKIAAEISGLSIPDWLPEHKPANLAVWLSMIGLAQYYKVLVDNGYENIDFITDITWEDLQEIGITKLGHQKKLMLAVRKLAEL

- Kd: 22 µM
Substance: Caskin1 SAM mutant G566K (from UniProt Q8WXD9 470-605) (domain or fragment)
